Data on 1 molecule can be found in publication PMC3814370 (2013).

In the assay the target is Pcc1–Kae1 binary complex from Pyrococcus abyssi (Pyrococcus abyssi (strain GE5 / …, UniProt Q9V1Z9,Q9UXT7)). Description: gel filtration. A general note: Size exclusion chromatography separates by hydrodynamic size, large species first.
Chain of Pcc1–Kae1 binary complex from Pyrococcus abyssi (Pyrococcus abyssi (Q9V1Z9 whole entry, chain 1 of 2): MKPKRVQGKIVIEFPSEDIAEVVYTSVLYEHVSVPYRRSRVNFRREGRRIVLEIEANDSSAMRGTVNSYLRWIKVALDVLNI
Chain of Pcc1–Kae1 binary complex from Pyrococcus abyssi (Pyrococcus abyssi (Q9UXT7 whole entry, chain 2 of 2): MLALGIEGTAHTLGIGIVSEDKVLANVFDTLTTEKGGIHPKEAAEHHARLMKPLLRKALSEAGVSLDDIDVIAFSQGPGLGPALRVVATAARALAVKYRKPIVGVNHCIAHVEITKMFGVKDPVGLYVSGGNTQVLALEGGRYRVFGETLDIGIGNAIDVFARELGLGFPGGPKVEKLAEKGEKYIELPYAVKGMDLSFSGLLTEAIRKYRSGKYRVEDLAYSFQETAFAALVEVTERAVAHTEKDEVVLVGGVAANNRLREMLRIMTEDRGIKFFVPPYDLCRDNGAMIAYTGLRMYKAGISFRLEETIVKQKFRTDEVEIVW

B1: Bud32–Cgi121 binary complex from Pyrococcus abyssi (protein)
chain 1: MKLIKQGAEAKIYLAEFSELYFDYPIKVIVKERIKKRYRIPEIDLKLRKERTIREARILRRAKEFGVNVPYVFEVDTKNMIIVMEYIEGERLKELLEKLPMEERLKVCREVGRQIGKLHEAGIVHGDLTTSNMILREGKVYFIDFGLAEFDDTIEAQGVDLHLLKRAMESTHYKWFERGFEEVLKGYIEIRGEDKGREIREKIREIELRGRYRERSWITQ
chain 2: MTPKFKNFKHDNSGQVETYLFEVISKYTMLEIKTKFGKLCIAKVKLASESIERALNLCNDNCQIVSAKCHEEVIFATILAIKAFSSGRNTAKTIKGEILLRLAGVKQIKDAIKIIGARKGENLIIYFGVSDPCSSLKDFISSLGLREEPLKPCDEDEVKRGFERAAIIEAL
Consider B1, for which the binding result is listed as “binds”.
